Experimental data taken from publication doi:10.1101/2024.01.05.574393.

Biological target: HSPB7ACD (α-crystallin domain, residues 78-162 of isoform 2) (human)
Experiment: native MS

Row | Binder | Kd [nM]
1 | FLNCd24 (domain 24 of filamin C, residues 2630-2724), wild type (domain or fragment) GSKFSSDASKVVTRGPGLSQAFVGQKNSFTVDCSKAGTNMMMVGVHGPKTPCEEVYVKHMGNRVYNVTYTVKEKGDYILIVKWGDESVPGSPFKVKV | 3.9
2 | FLNCd24 Y2683E (phospho-mimic, residues 2630-2724) (domain or fragment) GSKFSSDASKVVTRGPGLSQAFVGQKNSFTVDCSKAGTNMMMVGVHGPKTPCEEVEVKHMGNRVYNVTYTVKEKGDYILIVKWGDESVPGSPFKVKV | 2.2
3 | FLNCd24 T2677D (phospho-mimic, residues 2630-2724) (domain or fragment) GSKFSSDASKVVTRGPGLSQAFVGQKNSFTVDCSKAGTNMMMVGVHGPKDPCEEVYVKHMGNRVYNVTYTVKEKGDYILIVKWGDESVPGSPFKVKV | 14.1
